Experiments:
[1] = target: the molecule itself; assay: pull-down + SEC; YFPN-AQP0 + YFPC-CaM* co-expressed in S. cerevisiae; membranes solubilised in DDM; HisTrap HP (Ni-NTA) by the His tag on YFPC-CaM*, eluted with 250 mM imidazole; then FSEC on Superose6 Increase (20 mM Tris-HCl pH 7.5, 100 mM NaCl, 5 mM CaCl2, 1% β-OG); fluorescent peak at 15 mL on SDS-PAGE (Coomassie), immunoblot with anti-AQP0 and anti-CaM
[2] = target: the molecule itself; assay: SEC; isolated AQP0 alone on SEC

B1: YFPN‐AQP0 of the recloned pair YFPN‐AQP0 + YFPC‐CaM* (hexa‐histidine tag moved away from the AQP0 moiety) (natural protein, human, UniProt P30301 1-263, looked up)
chain: MWELRSASFWRAIFAEFFATLFYVFFGLGSSLRWAPGPLHVLQVAMAFGLALATLVQSVGHISGAHVNPAVTFAFLVGSQMSLLRAFCYMAAQLLGAVAGAAVLYSVTPPAVRGNLALNTLHPAVSVGQATTVEIFLTLQFVLCIFATYDERRNGQLGSVALAVGFSLALGHLFGMYYTGAGMNPARSFAPAILTGNFTNHWVYWVGPIIGGGLGSLLYDFLLFPRLKSISERLSVLKGAKPDVSNGQPEVTGEPVELNTQAL
notes: aquaporin 0 (AQP0), human; gene codon optimized for yeast (Genscript); As m1 but without the His tag; The purified complex is read by its size (about 500 kDa) as an octameric form of the aquaporin; also called hAQP0; source: S. cerevisiae, co-expressed with YFPC-CaM*, purified as a complex (DDM-solubilised membranes, Ni-NTA, SEC); not shown: YFPN (SYFP2 amino acids 1 to 154, linker KQKVMNH), …
stoichiometry N [1]: 8

B2: isolated AQP0 (expressed and purified separately) (natural protein, human, UniProt P30301 1-263, looked up)
chain: B1 chain
notes: also called pure protein AQP0; source: expressed and purified separately
stoichiometry N [2]: 4

Source: PMC5119558, “Applying bimolecular fluorescence complementation to screen and purify aquaporin protein:protein complexes” (Protein Science : A Publication of the Protein Society, 2016)
